The chains are these.
B1: FEM1B (parent)
chain: TLAALLLNRSESDIRYLLGYVSQQ

The results in this text go back to the supplement of paper PMC10567573.
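Also: lentivirally expressed fusions sorted by FACS into six bins by GFP to DsRed ratio, PSI derived from sequencing read proportions per bin multiplied by bin number.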

The variants in the series derive from B1. Description: protein stability index of a GFP-peptide fusion (GPS, HEK-293T) (PSI 1-6); higher = more stable. To be noted: c terminus: a fixed tail appended.
Regarding TLAALLLNRSESDIRYLLVYVSQQ, the protein stability index was determined as 3.02.

Consider TLAALLLNRSESDIRYLLPYVSQQ, for which the protein stability index turned out to be 2.76.

On to TLAALLLNRSESDIRYLLQYVSQQ, for which the protein stability index turned out to be 2.11.

Regarding TLAALLLNRSESDIRYLLKYVSQQ, the protein stability index was 3.24.

With TLAALLLNRSESDIRELLGYVSQQ, the protein stability index came to 2.06.

On to TLAALLLNRSESDIRILLGYVSQQ, for which the protein stability index worked out at 1.57.

With TLAALLLNRSESDIRMLLGYVSQQ, the protein stability index was 2.45.

On to TLAALLLNRSESDIRVLLGYVSQQ, for which the protein stability index came out at 2.24.

TLAALLLNRSESDIRHLLGYVSQQ: the protein stability index is 1.88.

In the case of TLAALLLNRSESDIRALLGYVSQQ, the protein stability index turned out to be 4.57.

On to TLAALLLNRSESDIRSLLGYVSQQ, for which the protein stability index was 1.81.

TLAALLLNRSESDIRKLLGYVSQQ: the protein stability index was determined as 2.83.

On to TLAALLLNRSESDIRDLLGYVSQQ, for which the protein stability index was 2.38.

On to TLAALLLNRSESDIRRLLGYVSQQ, for which the protein stability index is 2.06.

Turning to TLAALLLNRSESDIRNLLGYVSQQ, the protein stability index was 2.17.

For the variant TLAALLLNRSESDIRTLLGYVSQQ, the protein stability index came to 3.16.

As to TLAALLLNRSESDIRCLLGYVSQQ, the protein stability index was determined as 2.91.

Turning to TLAALLLNRSESDIRLLLGYVSQQ, the protein stability index was 2.01.

TLAALLLNRSESDIRGLLGYVSQQ: the protein stability index came to 3.2.

On to TLAALLLNRSESDIRQLLGYVSQQ, for which the protein stability index turned out to be 3.05.

On to TLAALLLNRSESDIRPLLGYVSQQ, for which the protein stability index worked out at 2.95.

Take TLAALLLNRSESDIRWLLGYVSQQ: the protein stability index amounted to 4.55.

For TLAALLLNRSESDIRFLLGYVSQQ, the protein stability index is 3.75.

Take TLAALLLNRSESDIRYLLGFVSQQ: the protein stability index stood at 1.29.

In the case of TLAALLLNRSESDIRYLLGKVSQQ, the protein stability index turned out to be 2.46.

Take TLAALLLNRSESDIRYLLGNVSQQ: the protein stability index was found to be 4.26.

Turning to TLAALLLNRSESDIRYLLGVVSQQ, the protein stability index was 3.32.

Turning to TLAALLLNRSESDIRYLLGWVSQQ, the protein stability index amounted to 2.52.

For TLAALLLNRSESDIRYLLGAVSQQ, the protein stability index was found to be 2.91.

Take TLAALLLNRSESDIRYLLGRVSQQ: the protein stability index turned out to be 3.14.

Consider TLAALLLNRSESDIRYLLGGVSQQ, for which the protein stability index turned out to be 2.25.

With TLAALLLNRSESDIRYLLGMVSQQ, the protein stability index was found to be 4.22.

Take TLAALLLNRSESDIRYLLGHVSQQ: the protein stability index was found to be 2.13.

On to TLAALLLNRSESDIRYLLGLVSQQ, for which the protein stability index was 2.66.

Consider TLAALLLNRSESDIRYLLGIVSQQ, for which the protein stability index came to 3.01.

As for TLAALLLNRSESDIRYLLGDVSQQ, the protein stability index is 3.08.

For TLAALLLNRSESDIRYLLGQVSQQ, the protein stability index worked out at 3.

Turning to TLAALLLNRSESDIRYLLGCVSQQ, the protein stability index stood at 3.38.

Regarding TLAALLLNRSESDIRYLLGPVSQQ, the protein stability index was found to be 2.58.

As to TLAALLLNRSESDIRYLLGEVSQQ, the protein stability index stood at 4.31.

Turning to TLAALLLNRSESDIRYLLGTVSQQ, the protein stability index was determined as 1.97.

Regarding TLAALLLNRSESDIRYLLGYVDQQ, the protein stability index amounted to 2.48.

As to TLAALLLNRSESDIRYLLGYVCQQ, the protein stability index stood at 2.87.

Take TLAALLLNRSESDIRYLLGYVFQQ: the protein stability index was determined as 2.73.

For the variant TLAALLLNRSESDIRYLLGYVQQQ, the protein stability index amounted to 3.56.

Regarding TLAALLLNRSESDIRYLLGYVLQQ, the protein stability index amounted to 3.22.

Regarding TLAALLLNRSESDIRYLLGYVYQQ, the protein stability index is 2.7.

Regarding TLAALLLNRSESDIRYLLGYVWQQ, the protein stability index was 3.27.

For TLAALLLNRSESDIRYLLGYVRQQ, the protein stability index amounted to 2.37.

For TLAALLLNRSESDIRYLLGYVPQQ, the protein stability index was found to be 2.53.

In the case of TLAALLLNRSESDIRYLLGYVTQQ, the protein stability index was determined as 2.5.

On to TLAALLLNRSESDIRYLLGYVAQQ, for which the protein stability index amounted to 3.04.

Consider TLAALLLNRSESDIRYLLGYVHQQ, for which the protein stability index came to 2.55.

TLAALLLNRSESDIRYLLGYVIQQ: the protein stability index stood at 2.42.

For TLAALLLNRSESDIRYLLGYVGQQ, the protein stability index was determined as 2.98.

In the case of TLAALLLNRSESDIRYLLGYVKQQ, the protein stability index stood at 2.77.

As to TLAALLLNRSESDIRYLLGYVNQQ, the protein stability index came to 1.56.

With TLAALLLNRSESDIRYLLGYVVQQ, the protein stability index amounted to 2.25.

As to TLAALLLNRSESDIRYLFGYVSQQ, the protein stability index is 2.34.

Consider TLAALLLNRSESDIRYLHGYVSQQ, for which the protein stability index was determined as 2.17.

Take TLAALLLNRSESDIRYLQGYVSQQ: the protein stability index was determined as 3.66.

With TLAALLLNRSESDIRYLNGYVSQQ, the protein stability index turned out to be 1.73.

For TLAALLLNRSESDIRYLPGYVSQQ, the protein stability index was 2.69.

Consider TLAALLLNRSESDIRYLSGYVSQQ, for which the protein stability index was found to be 3.62.

Consider TLAALLLNRSESDIRYLWGYVSQQ, for which the protein stability index stood at 3.01.

Consider TLAALLLNRSESDIRYLVGYVSQQ, for which the protein stability index was found to be 1.67.

As for TLAALLLNRSESDIRYLMGYVSQQ, the protein stability index is 1.94.

For the variant TLAALLLNRSESDIRYLCGYVSQQ, the protein stability index came out at 2.45.

For the variant TLAALLLNRSESDIRYLRGYVSQQ, the protein stability index worked out at 3.15.

For TLAALLLNRSESDIRYLDGYVSQQ, the protein stability index is 1.64.

As for TLAALLLNRSESDIRYLKGYVSQQ, the protein stability index turned out to be 3.43.

Turning to TLAALLLNRSESDIRYLYGYVSQQ, the protein stability index amounted to 3.1.

For the variant TLAALLLNRSESDIRYLEGYVSQQ, the protein stability index is 1.78.

TLAALLLNRSESDIRYLTGYVSQQ: the protein stability index amounted to 3.06.

For the variant TLAALLLNRSESDIRYLAGYVSQQ, the protein stability index is 1.98.

Turning to TLAALLLNRSESDIRYLIGYVSQQ, the protein stability index is 2.8.

On to TLAALLLNRSESDIRYLLGYFSQQ, for which the protein stability index turned out to be 2.23.

As to TLAALLLNRSESDIRYLLGYPSQQ, the protein stability index came out at 2.42.

In the case of TLAALLLNRSESDIRYLLGYASQQ, the protein stability index amounted to 3.97.

As for TLAALLLNRSESDIRYLLGYYSQQ, the protein stability index worked out at 2.32.

Regarding TLAALLLNRSESDIRYLLGYTSQQ, the protein stability index stood at 1.82.

As for TLAALLLNRSESDIRYLLGYRSQQ, the protein stability index came to 1.3.

In the case of TLAALLLNRSESDIRYLLGYQSQQ, the protein stability index was 1.53.

TLAALLLNRSESDIRYLLGYISQQ: the protein stability index is 2.41.

Regarding TLAALLLNRSESDIRYLLGYSSQQ, the protein stability index stood at 3.12.

For the variant TLAALLLNRSESDIRYLLGYLSQQ, the protein stability index was 3.44.

As for TLAALLLNRSESDIRYLLGYWSQQ, the protein stability index was found to be 3.68.

Regarding TLAALLLNRSESDIRYLLGYNSQQ, the protein stability index turned out to be 3.55.

As to TLAALLLNRSESDIRYLLGYMSQQ, the protein stability index was found to be 2.17.

In the case of TLAALLLNRSESDIRYLLGYGSQQ, the protein stability index stood at 1.62.

As to TLAALLLNRSESDIRYLLGYCSQQ, the protein stability index worked out at 3.21.

In the case of TLAALLLNRSESDIRYLLGYDSQQ, the protein stability index was determined as 2.86.

With TLAALLLNRSESDIRYLLGYKSQQ, the protein stability index turned out to be 1.97.

Regarding TLAALLLNRSESDIRYLLGYESQQ, the protein stability index amounted to 2.03.
